According to paper PMC6232157, “Human adipose glycerol flux is regulated by a pH gate in AQP10” (Nature Communications, 2018):

B1: human aquaporin 10, crystallized variant hAQP10_(cryst) (domain or fragment, UniProt Q96PS8 11-277, looked up)
chain: MGHLRIRSLLARQCLAEFLGVFVLMLLTQGAVAQAVTSGETKGNFFTMFLAGSLAVTIAIYVGGNVSGAHLNPAFSLAMCIVGRLPWVKLPIYILVQLLSAFCASGATYVLYHDALQNYTGGNLTVTGPKETASIFATYPAPYLSLNNGFLDQVLGTGMLIVGLLAILDRRNKGVPAGLEPVVVGMLILALGLSMGANCGIPLNPARDLGPRLFTYVAGWGPEVFSAGNGWWWVPVVAPLVGATVGTATYQLLVALHHPEGPEPAQD
notes: human aquaglyceroporin AQP10, truncated in the termini (Δ1–10, Δ278–301): the first 10 and the last 24 amino acids removed; codon-optimized cDNA; His8 stretch fused directly to the C-terminus with no protease site; also called human AQP10; source: S. cerevisiae PAP1500, purified (IMAC, SEC); not shown: His8, C-terminal, kept

What was measured:
His80 = His80 (UniProt position 80, NVSGAHLNPAF); assay: kinetics (stopped-flow fluorescence transport assay in intact yeast cells); conditions: 23 °C; not stated (50 mM K-citrate buffer); 50 mM K-citrate with 1.4 M sorbitol; osmotic shock with 2.1 M glycerol in 50 mM K-citrate; Channel in the yeast plasma membrane, glycerol gradient applied; pH-gated closed (high pH) to open (low pH) transition
[1] = target: the molecule itself; assay: crystal structure; hanging-drop vapor diffusion at 18 °C, 100 mM MES-NaOH pH 6.0, 19 % PEG 2k MME, 5 % glycerol; entire tetramer in the asymmetric unit; 2.3 Å

Row | Molecule | pKa (His80) | stoichiometry N [1]
1 | Aquaporin-10 (hAQP10), full length (Homo sapiens) | 5.92 ± 0.20 | –
2 | Aquaporin-10 crystallisation construct (hAQP10cryst) (Homo sapiens; del1-10;del278-301) | 6.00 ± 0.13 | –
3 | B1 | – | 4
